The values that follow are results of earlier work, collected in patent publication US20250319161A1, “IMPROVED METHODS OF TREATING DISEASES RESULTING FROM A MALADAPTED STRESS RESPONSE” (priority 2021, published 2025).

Ends that are not written are not given here.

Data set [1] concerns the target T1, CRFR2 (Homo sapiens, UniProt Q13324).
T1 sequence (Q13324 1-411): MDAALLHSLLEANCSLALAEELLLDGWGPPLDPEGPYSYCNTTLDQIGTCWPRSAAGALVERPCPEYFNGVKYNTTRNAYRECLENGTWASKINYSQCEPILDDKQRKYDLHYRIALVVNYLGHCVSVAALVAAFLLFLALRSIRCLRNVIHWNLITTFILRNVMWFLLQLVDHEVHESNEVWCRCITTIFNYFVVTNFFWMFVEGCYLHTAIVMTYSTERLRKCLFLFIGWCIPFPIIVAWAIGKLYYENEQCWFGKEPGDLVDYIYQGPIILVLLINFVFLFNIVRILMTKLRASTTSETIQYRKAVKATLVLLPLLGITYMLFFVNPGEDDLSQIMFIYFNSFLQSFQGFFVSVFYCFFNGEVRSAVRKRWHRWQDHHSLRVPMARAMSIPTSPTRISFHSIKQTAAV
The settings on record: in vitro.

The target of data set [2] is T1, CRFR2. The settings on record: in vitro. The source holds these as a separate data set.
Data set [3] concerns the target T1, CRFR2. To be noted: read-out: inhibitory constant at CRFR2.

As a reminder, the EC50 is the concentration at which the effect is half-maximal. With “endogenous urocortin 2, IVLSLDVPIG LLQILLEQAR ARAARBQATT NARILARV-NH2 [UCN2]”, the EC50 with CRFR2 [1] was 4.3 nM. In addition, the “concentration achieving maximal CRFR2 endocytosis” value with CRFR2 [2] was 100 nmol. For the same substance, the Ki with CRFR2 [3] was 1.1 nM.

With “endogenous urocortin 1, DNPSLSIDLTFHLLRTLLELARTQSQRERAEQNRIIFDSV-NH2 (DNPSLSIDLTFHLLRTLLELARTQSQRERAEQNRIIFDSV-NH2; UniProt P55089 83-122, looked up) [UCN1]”, in the data set with CRFR2 [3], the Ki is 0.4 nM.
